According to patent publication US20230212289A1:

Target: CD3 (antigen of the binding affinity table of Example 1) (UniProt P07766)
Assay: kinetic fit with two-state parameters; method not given

Molecule	Kd [nM]	ka2 [s⁻¹]	kd2 [s⁻¹]	koff [s⁻¹]	kon [M⁻¹ s⁻¹]
OKT3-chimeric (antibody)	0.622	0.0105	0.00194	0.138	3.44e+07
H4L1 (antibody, V domains shown) VH: QVQLQQSGAEVKKPGASVKMSCKASGYTFTRYTMHWVRQAPGQGLEWIGYINPSRGYTNYNQKFKDRVTLTTDTSISTAYMELSRLRSDDTAVYYCARYYDDHYSLDYWGQGTTLTVSS VL: DIQMTQSPSSLSASVGDRVTMTCSASSSVSYMNWYQQKPGKAPKRLIYDTSKLASGVPSRFSGSGSGTDFTLTISSLQPEDFATYYCQQWSSNPFTFGSGTKLEINR	7.49	0.0282	0.0023	0.176	1.77e+06
H3L2 (antibody, V domains shown) VH: QVQLVQSGAEVKKPGASVKMSCKASGYTFTRYTMHWVRQAPGQGLEWIGYINPSRGYTNYNQKFKDRATMTTDKSISTAYMELSRLRSDDTAVYYCARYYDDHYSLDYWGQGTTLTVSS VL: DIQMTQSPSSLSASVGDRVTMTCSASSSVSYMNWYQQKPGKAPKLLIYDTSKLASGVPSRFSGSGSGTDFTLTISSMQPEDFATYYCQQWSSNPFTFGSGTKLEINR	1.75	0.0234	0.000939	0.139	3.06e+06
H3L3 (antibody, V domains shown) VH: QVQLVQSGAEVKKPGASVKMSCKASGYTFTRYTMHWVRQAPGQGLEWIGYINPSRGYTNYNQKFKDRATMTTDKSISTAYMELSRLRSDDTAVYYCARYYDDHYSLDYWGQGTTLTVSS VL: DIQLTQSPSSLSASVGDRVTITCSASSSVSYMNWYQQKPGKAPKLLIYDTSKLASGVPSRFSGSGSGTDYTLTISSLQPEDFATYYCQQWSSNPFTFGSGTKLEINR	1.38	0.0191	0.000815	0.402	1.19e+07
H4L4 (antibody, V domains shown) VH: QVQLQQSGAEVKKPGASVKMSCKASGYTFTRYTMHWVRQAPGQGLEWIGYINPSRGYTNYNQKFKDRVTLTTDTSISTAYMELSRLRSDDTAVYYCARYYDDHYSLDYWGQGTTLTVSS VL: DIQLTQSPSSLSASVGDRVTITCSASSSVSYMNWYQQKPGKAPKLLIYDTSKLASGVPSRFSGSGSGTDFTLTISSMQPEDFATYYCQQWSSNPFTFGSGTKLEINR	13.9	0.0212	0.0023	0.248	1.75e+06
H2L2 (antibody, V domains shown) VH: QVQLQQSGAEVAKPGASVKVSCKASGYTFTRYTMHWVRQAPGQGLEWMGYINPSRGYTNYNQKFKDRATLTRDKSISTAYMELSRLRSDDTAVYYCARYYDDHYSLDYWGQGTTLTVSS VL: DIQMTQSPSSLSASVGDRVTMTCSASSSVSYMNWYQQKPGKAPKLLIYDTSKLASGVPSRFSGSGSGTDFTLTISSMQPEDFATYYCQQWSSNPFTFGSGTKLEINR	0.892	0.0268	0.000814	0.0986	3.26e+06
H2L5 (antibody, V domains shown) VH: QVQLQQSGAEVAKPGASVKVSCKASGYTFTRYTMHWVRQAPGQGLEWMGYINPSRGYTNYNQKFKDRATLTRDKSISTAYMELSRLRSDDTAVYYCARYYDDHYSLDYWGQGTTLTVSS VL: DIQMTQSPSSLSASVGDRVTITCSASSSVSYMNWYQQKPGKAPKRWIYDTSKLASGVPSRFSGSGSGTDFTLTISSLQPEDFATYYCQQWSSNPFTFGSGTKLEINR	2.55	0.0127	0.00369	0.0567	5.02e+06
H2L4 (antibody, V domains shown) VH: QVQLQQSGAEVAKPGASVKVSCKASGYTFTRYTMHWVRQAPGQGLEWMGYINPSRGYTNYNQKFKDRATLTRDKSISTAYMELSRLRSDDTAVYYCARYYDDHYSLDYWGQGTTLTVSS VL: DIQLTQSPSSLSASVGDRVTITCSASSSVSYMNWYQQKPGKAPKLLIYDTSKLASGVPSRFSGSGSGTDFTLTISSMQPEDFATYYCQQWSSNPFTFGSGTKLEINR	0.642	0.0234	0.000671	0.0814	3.54e+06
H4L3 (antibody, V domains shown) VH: QVQLQQSGAEVKKPGASVKMSCKASGYTFTRYTMHWVRQAPGQGLEWIGYINPSRGYTNYNQKFKDRVTLTTDTSISTAYMELSRLRSDDTAVYYCARYYDDHYSLDYWGQGTTLTVSS VL: DIQLTQSPSSLSASVGDRVTITCSASSSVSYMNWYQQKPGKAPKLLIYDTSKLASGVPSRFSGSGSGTDYTLTISSLQPEDFATYYCQQWSSNPFTFGSGTKLEINR	14.7	0.0205	0.00238	0.264	1.88e+06
H2L1 (antibody, V domains shown) VH: QVQLQQSGAEVAKPGASVKVSCKASGYTFTRYTMHWVRQAPGQGLEWMGYINPSRGYTNYNQKFKDRATLTRDKSISTAYMELSRLRSDDTAVYYCARYYDDHYSLDYWGQGTTLTVSS VL: DIQMTQSPSSLSASVGDRVTMTCSASSSVSYMNWYQQKPGKAPKRLIYDTSKLASGVPSRFSGSGSGTDFTLTISSLQPEDFATYYCQQWSSNPFTFGSGTKLEINR	0.808	0.026	0.000779	0.0979	3.52e+06
H3L5 (antibody, V domains shown) VH: QVQLVQSGAEVKKPGASVKMSCKASGYTFTRYTMHWVRQAPGQGLEWIGYINPSRGYTNYNQKFKDRATMTTDKSISTAYMELSRLRSDDTAVYYCARYYDDHYSLDYWGQGTTLTVSS VL: DIQMTQSPSSLSASVGDRVTITCSASSSVSYMNWYQQKPGKAPKRWIYDTSKLASGVPSRFSGSGSGTDFTLTISSLQPEDFATYYCQQWSSNPFTFGSGTKLEINR	7.6	0.00709	0.00496	0.0647	3.51e+06
H4L2 (antibody, V domains shown) VH: QVQLQQSGAEVKKPGASVKMSCKASGYTFTRYTMHWVRQAPGQGLEWIGYINPSRGYTNYNQKFKDRVTLTTDTSISTAYMELSRLRSDDTAVYYCARYYDDHYSLDYWGQGTTLTVSS VL: DIQMTQSPSSLSASVGDRVTMTCSASSSVSYMNWYQQKPGKAPKLLIYDTSKLASGVPSRFSGSGSGTDFTLTISSMQPEDFATYYCQQWSSNPFTFGSGTKLEINR	15.3	0.026	0.00294	0.217	1.44e+06
H4L6 (antibody, V domains shown) VH: QVQLQQSGAEVKKPGASVKMSCKASGYTFTRYTMHWVRQAPGQGLEWIGYINPSRGYTNYNQKFKDRVTLTTDTSISTAYMELSRLRSDDTAVYYCARYYDDHYSLDYWGQGTTLTVSS VL: DIQMTQSPSSLSASVGDRVTITCSASSSVSYMNWYQQKPGKAPKLWIYDTSKLASGVPSRFSGSGSGTDYTLTISSLQPEDFATYYCQQWSSNPFTFGSGTKLEINR	12.4	0.00534	0.000594	0.251	2.02e+06
H2L3 (antibody, V domains shown) VH: QVQLQQSGAEVAKPGASVKVSCKASGYTFTRYTMHWVRQAPGQGLEWMGYINPSRGYTNYNQKFKDRATLTRDKSISTAYMELSRLRSDDTAVYYCARYYDDHYSLDYWGQGTTLTVSS VL: DIQLTQSPSSLSASVGDRVTITCSASSSVSYMNWYQQKPGKAPKLLIYDTSKLASGVPSRFSGSGSGTDYTLTISSLQPEDFATYYCQQWSSNPFTFGSGTKLEINR	0.619	0.0228	0.000719	0.13	6.42e+06
H3L4 (antibody, V domains shown) VH: QVQLVQSGAEVKKPGASVKMSCKASGYTFTRYTMHWVRQAPGQGLEWIGYINPSRGYTNYNQKFKDRATMTTDKSISTAYMELSRLRSDDTAVYYCARYYDDHYSLDYWGQGTTLTVSS VL: DIQLTQSPSSLSASVGDRVTITCSASSSVSYMNWYQQKPGKAPKLLIYDTSKLASGVPSRFSGSGSGTDFTLTISSMQPEDFATYYCQQWSSNPFTFGSGTKLEINR	1.33	0.0213	0.000744	0.119	3.03e+06
H3L1 (antibody, V domains shown) VH: QVQLVQSGAEVKKPGASVKMSCKASGYTFTRYTMHWVRQAPGQGLEWIGYINPSRGYTNYNQKFKDRATMTTDKSISTAYMELSRLRSDDTAVYYCARYYDDHYSLDYWGQGTTLTVSS VL: DIQMTQSPSSLSASVGDRVTMTCSASSSVSYMNWYQQKPGKAPKRLIYDTSKLASGVPSRFSGSGSGTDFTLTISSLQPEDFATYYCQQWSSNPFTFGSGTKLEINR	1.16	0.0229	0.000831	0.155	4.67e+06
H3L6 (antibody, V domains shown) VH: QVQLVQSGAEVKKPGASVKMSCKASGYTFTRYTMHWVRQAPGQGLEWIGYINPSRGYTNYNQKFKDRATMTTDKSISTAYMELSRLRSDDTAVYYCARYYDDHYSLDYWGQGTTLTVSS VL: DIQMTQSPSSLSASVGDRVTITCSASSSVSYMNWYQQKPGKAPKLWIYDTSKLASGVPSRFSGSGSGTDYTLTISSLQPEDFATYYCQQWSSNPFTFGSGTKLEINR	8.84	0.00491	0.00243	0.0814	3.05e+06
H4L5 (antibody, V domains shown) VH: QVQLQQSGAEVKKPGASVKMSCKASGYTFTRYTMHWVRQAPGQGLEWIGYINPSRGYTNYNQKFKDRVTLTTDTSISTAYMELSRLRSDDTAVYYCARYYDDHYSLDYWGQGTTLTVSS VL: DIQMTQSPSSLSASVGDRVTITCSASSSVSYMNWYQQKPGKAPKRWIYDTSKLASGVPSRFSGSGSGTDFTLTISSLQPEDFATYYCQQWSSNPFTFGSGTKLEINR	9.96	0.0041	0.000744	0.141	2.17e+06
H2L6 (antibody, V domains shown) VH: QVQLQQSGAEVAKPGASVKVSCKASGYTFTRYTMHWVRQAPGQGLEWMGYINPSRGYTNYNQKFKDRATLTRDKSISTAYMELSRLRSDDTAVYYCARYYDDHYSLDYWGQGTTLTVSS VL: DIQMTQSPSSLSASVGDRVTITCSASSSVSYMNWYQQKPGKAPKLWIYDTSKLASGVPSRFSGSGSGTDYTLTISSLQPEDFATYYCQQWSSNPFTFGSGTKLEINR	5.68	0.0101	0.00581	0.0638	4.1e+06
